Laboratory results reported in patent CN117843776A.

Molecular target: IL-17RA and IL-17RC co-expressed on 293F-IL-17RA-IL-17Rc-ACT1-NFκB-Luc reporter cells (Homo sapiens (Human)) (UniProt Q96F46)
Experiment: FACS, IL-17A recombinant protein on 293F-IL-17RA-IL-17Rc-ACT1-NFκB-Luc cells

Chain of UniProt Q96F46 (Q96F46 33-866 limits assumed, chain 1 of 2): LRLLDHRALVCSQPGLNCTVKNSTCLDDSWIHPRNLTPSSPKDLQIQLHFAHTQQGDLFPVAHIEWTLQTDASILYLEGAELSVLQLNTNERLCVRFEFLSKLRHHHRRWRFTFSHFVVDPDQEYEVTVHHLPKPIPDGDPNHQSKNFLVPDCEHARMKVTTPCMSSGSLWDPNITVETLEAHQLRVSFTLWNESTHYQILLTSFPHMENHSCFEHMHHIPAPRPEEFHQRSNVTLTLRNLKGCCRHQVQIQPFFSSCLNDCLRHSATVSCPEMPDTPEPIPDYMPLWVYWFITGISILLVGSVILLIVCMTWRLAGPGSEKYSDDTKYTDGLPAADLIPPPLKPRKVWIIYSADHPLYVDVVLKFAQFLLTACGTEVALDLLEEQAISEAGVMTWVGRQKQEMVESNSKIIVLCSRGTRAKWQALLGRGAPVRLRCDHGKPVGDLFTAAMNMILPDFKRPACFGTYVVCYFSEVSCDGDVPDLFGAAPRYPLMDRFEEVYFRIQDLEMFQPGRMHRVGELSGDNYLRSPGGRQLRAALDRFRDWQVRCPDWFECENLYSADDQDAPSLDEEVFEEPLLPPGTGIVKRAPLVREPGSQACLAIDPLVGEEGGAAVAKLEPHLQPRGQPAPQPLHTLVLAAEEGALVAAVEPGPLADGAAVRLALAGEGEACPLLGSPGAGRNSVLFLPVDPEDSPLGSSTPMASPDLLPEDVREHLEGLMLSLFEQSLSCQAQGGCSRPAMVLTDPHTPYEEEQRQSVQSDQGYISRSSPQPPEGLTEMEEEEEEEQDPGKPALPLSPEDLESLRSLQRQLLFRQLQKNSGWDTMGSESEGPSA
Chain of UniProt Q96F46 (chain, as listed by the source limits assumed, chain 2 of 2): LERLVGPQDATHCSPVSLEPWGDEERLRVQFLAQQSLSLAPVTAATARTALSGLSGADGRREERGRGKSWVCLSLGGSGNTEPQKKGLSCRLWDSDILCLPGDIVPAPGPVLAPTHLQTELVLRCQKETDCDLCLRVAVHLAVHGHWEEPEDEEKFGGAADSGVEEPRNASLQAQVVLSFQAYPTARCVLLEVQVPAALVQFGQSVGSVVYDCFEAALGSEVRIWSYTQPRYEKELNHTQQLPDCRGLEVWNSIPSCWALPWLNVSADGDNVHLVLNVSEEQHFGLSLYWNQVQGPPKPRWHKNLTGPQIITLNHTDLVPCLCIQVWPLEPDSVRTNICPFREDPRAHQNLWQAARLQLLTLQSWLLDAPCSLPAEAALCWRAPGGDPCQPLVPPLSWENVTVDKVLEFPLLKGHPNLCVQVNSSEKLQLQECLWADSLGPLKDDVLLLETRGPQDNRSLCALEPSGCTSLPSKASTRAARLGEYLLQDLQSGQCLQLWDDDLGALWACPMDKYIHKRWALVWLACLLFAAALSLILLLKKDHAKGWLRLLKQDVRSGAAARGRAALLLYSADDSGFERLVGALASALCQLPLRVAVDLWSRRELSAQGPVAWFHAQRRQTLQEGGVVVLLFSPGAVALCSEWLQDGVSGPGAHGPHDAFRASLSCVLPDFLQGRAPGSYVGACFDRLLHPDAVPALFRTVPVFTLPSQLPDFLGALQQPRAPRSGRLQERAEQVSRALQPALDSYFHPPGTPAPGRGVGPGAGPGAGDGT

Q: “Human IL-17A重组蛋白 (C-terminal 6xHis) (from UniProt Q16552 24-155) (ligand)” was tested. Which 阳性率 did it give?
A: Its 阳性率 is > 90 %.
